Columns and labels:
[1] = target: T1, SARS-CoV-2 Wuhan-Hu-1 spike receptor-binding domain (RBD) (SARS-CoV-2 Wuhan-Hu-1, UniProt P0DTC2); experiment: ELISA
[2] = target: T1, SARS-CoV-2 Wuhan-Hu-1 spike …; experiment: crystal structure
[3] = target: T1, SARS-CoV-2 Wuhan-Hu-1 spike …; experiment: BLI

Row | Binder | binding result [2] | other results
1 | NCV2SG53 monoclonal antibody (human IgG) (antibody, V domains shown) VH: QVQMVESGGGLVRPGGSLRLSCAASGFTFSDYYMSWIRQAPGKGLEWISYISSSGSSMNYADSVKGRFTISRDNAKNSLFLQMNSLRAEDTAVYYCAREFDLTKIIMVPPYWGQGTLVTVSS VL: AIQLTQSPSSLSASVGDRVTITCRASQGISSYLAWYQQKPGKAPKVLIYAASTLQSGVPSRFSGSGSGTDFTLTISSLQPEDFATYYCQQLKSYPLTFGGGTKVEIT |  | binding result [1]: binds
2 | Fab fragment of NCV2SG53 (Fab, V domains shown) VH: QVQMVESGGGLVRPGGSLRLSCAASGFTFSDYYMSWIRQAPGKGLEWISYISSSGSSMNYADSVKGRFTISRDNAKNSLFLQMNSLRAEDTAVYYCAREFDLTKIIMVPPYWGQGTLVTVSS VL: AIQLTQSPSSLSASVGDRVTITCRASQGISSYLAWYQQKPGKAPKVLIYAASTLQSGVPSRFSGSGSGTDFTLTISSLQPEDFATYYCQQLKSYPLTFGGGTKVEIT | binds | 
3 | Fab fragment from NCV2SG48 (Fab, V domains shown) VH: EVQLVESGGGLIQPGGSLRLSCAASGFIVSRNYMNWVRQAPGKGLEWVALIYSGGSTFYADSVKGRFTISRDNSKNTLYLQMNSLRAEDTAVYYCARDLVVYGLDYWGQGTLVTVSS VL: AIQLTQSPSSLSASVGDRVTITCRASQGISSHLAWYQQKPGKAPKLLIFAASTLQSGVPSRFSGSGSGTDFTLTISSLQPEDFATYYCQHLNSNPPITFGQGTRLEIK | binds | 
4 | NCV2SG48 monoclonal antibody (human IgG) (antibody, V domains shown) VH: EVQLVESGGGLIQPGGSLRLSCAASGFIVSRNYMNWVRQAPGKGLEWVALIYSGGSTFYADSVKGRFTISRDNSKNTLYLQMNSLRAEDTAVYYCARDLVVYGLDYWGQGTLVTVSS VL: AIQLTQSPSSLSASVGDRVTITCRASQGISSHLAWYQQKPGKAPKLLIFAASTLQSGVPSRFSGSGSGTDFTLTISSLQPEDFATYYCQHLNSNPPITFGQGTRLEIK |  | binding result [3]: binds

Reference: doi:10.1101/2022.01.26.477937 (bioRxiv, 2022)
